Measured values as given in patent US7799901B2, “Modulators of the function of FAS receptors and other proteins” (Yeda Research and Development Co. Ltd., priority 1995, dated 2010).
Entries after “also recorded” stand apart in the source; their conditions may differ.

Columns and labels:
MACHβ1 = target: T1, MACHβ1 (Homo sapiens, UniProt Q14790); experiment: Two-hybrid β-galactosidase filter assay (FIG. 5), binding to MACHβ1; details: two hybrid test
T1 construct: a construct encoding only the ORF-B (MACH B) region; expressed in transfected cells; host or cells: SFY526 yeast
Description: The yeast two-hybrid test was further applied to evaluate the specificity of binding of MACH to MORT-1, in particular, to define the region in MORT-1 to which MACH binds, as well as to determine which of the MACH ORFs interacts with MORT-1, the procedures being as set forth herein above in Examples 1 and 2. Briefly, various MORT-1 and MACH constructs were prepared for testing the interaction of the proteins encoded by the Gal4 DNA-binding domain and activation domain constructs within transfected SFY526 yeast cells as assessed by the β-galactosidase expression filter assay. The DNA-binding domain constructs were prepared in pGBT9 vectors and the activation domain constructs were prepared in pGAD-GM vectors. For the activation domain constructs, the full-length MACH cDNA was used (MACH), as was a construct encoding only the ORF-B (MACH B) region. Control activation domain constructs were those containing the full-length MORT-1 coding sequence (MORT 1, positive control) and those having no inserts, i.e., “empty” vectors (pGAD-GM). For the DNA-binding domain constructs, the full-length MORT-1 cDNA was used (MORT 1), as were constructs encoding only the MORT-1 […] (MORT-1DD aa 130-245). […] In the assay, the development of color was determined, where the greater the color development, the greater the interaction between the constructs encoded by the DNA-binding domain and activation domain; Color development was depicted by symbols, where “+++” and “+” indicate the development of a strong color within 30 and 90 min. of the assay, respectively, and “−−−” indicates the lack of development of color within 24 hrs. of the assay. […]
In FIG. 5, there is shown the results of the interaction of MORT-1 and MACH within transfected yeast cells. […] Their interaction was assessed by a β-galactosidase expression filter assay as described in Boldin et al (1995b). […]

HeLa cells = experiment: Cell death on overexpression of MACH isoforms in HeLa cells; format: cell-based; details: FIG. 19
Description: In brief, 293-EBNA cells, MCF7 human breast carcinoma cells and HeLa HtTA-1 cells were grown in Dulbecco's modified Eagle's minimal essential medium supplemented with 10% fetal calf serum, nonessential amino acids, 100 U/ml penicillin and 100 μg/ml streptomycin. Cell tissue culture dishes (5×10^5 293-EBNA cells, 3×10^5 s MCF7 cells or 3×10^5 HeLa cells in 6-cm dishes) were transiently transfected, using the calcium phosphate precipitation method, with the cDNAs of the indicated proteins together with the β-galactosidase expression vector. In the experiments presented in FIGS. 14A-D and 15, each dish was transfected with 3.5 μg of the indicated MACH construct and 1.5 μg of pSV-β-gal. In the experiments presented in FIGS. 16A-D and 17-19, each dish was transfected with 2.5 μg of the indicated MACH or MORT1 construct (or, as control, empty vector) and 1.5 μg of pSV-β-gal. The cells were rinsed 6 to 10 h after transfection. The 293-EBNA and MCF7 cells were incubated for a further 18 h without additional treatment. The HeLa cells were incubated for 26 h after transfection and-then for 5 h in the presence of either anti-Fas.APO1 antibody (CH11, 0.5 μg/ml) or TNF (100 ng/ml), together with cycloheximide (10 μg/ml). The extent of cell death at the end of the incubation periods was assessed by determination of β-galactosidase expression, as described by Kumar et al, 1994.
To examine the involvement of the CED3/ICE homology region within the MACHα isoforms in their apoptopic effects, cells were transfected with the expression vector for the MACHβ1 isoform, which lacks the CED3/ICE homology region, as well as with expression vectors for MACHα3, which lacks an N-terminal part of the region, and with expression vectors for MACHα1 (C360S) and for a C-terminally truncated mutant of MACHα1 (MACHα1 (1-415)), which lacks one of the residues believed to be critical for CED3/ICE protease function (corresponding to Ser347 in ICE). […]

| Molecule | binding to MACHβ1 in transfected yeast (MACHβ1) | cytotoxicity in transfected HeLa cells (HeLa cells) |
| --- | --- | --- |
| MACHα1: MACH isoform, cDNA SEQ ID NO: 14, amino acid SEQ ID NO: 7; contains CED3/ICE homology region | scored clearly positive | – |
| MACHα1 (C360S): MACHα1 mutant in which the catalytic cysteine Cys360 is replaced by Ser (protein) MDFSRNLYDIGEQLDSEDLASLKFLSLDYIPQRKQEPIKDALMLFQRLQEKRMLEESNLSFLKELLFRINRLDLLITYLNTRKEEMERELQTPGRAQISAYRVMLYQISEEVSRSELRSFKFLLQEEISKCKLDDDMNLLDIFIEMEKRVILGEGKLDILKRVCAQINKSLLKIINDYEEFSKERSSSLEGSPDEFSNGEELCGVMTISDSPREQDSESQTLDKVYQMKSKPRGYCLIINNHNFAKAREKVPKLHSIRDRNGTHLDAGALTTTFEELHFEIKPHDDCTVEQIYEILKIYQLMDHSNMDCFICCILSHGDKGIIYGTDGQEAPIYELTSQFTGLKCPSLAGKPKVFFIQASQGDNYQKGIPVETDSEEQPYLEMDLSSPQTRYIPDEADFLLGMATVNNCVSYRNPAEGTWYIQSLCQSLRERCPRGDDILTILTEVNYEVSNKDDKKNMGKQMPQPTFTLRKKLVFPSD | bound | somewhat cytotoxic |
| MACHβ1: MACH isoform, cDNA SEQ ID NO: 4, amino acid SEQ ID NO: 5; lacks the CED3/ICE homology region (protein) MDFSRNLYDIGEQLDSEDLASLKFLSLDYIPQRKQEPIKDALMLFQRLQEKRMLEESNLSFLKELLFRINRLDLLITYLNTRKEEMERELQTPGRAQISAYRVMLYQISEEVSRSELRSFKFLLQEEISKCKLDDDMNLLDIFIEMEKRVILGEGKLDILKRVCAQINKSLLKIINDYEEFSKERSSSLEGSPDEFSNDFGQSLPNEKQTSGILSDHQQSQFCKSTGESAQTSQH | self-associated | more pronounced; also recorded: rather significant cytoxic effect |
